T1: CD39 mutant 19 (human, UniProt P49961 1-510)
T1 construct: Expressed on Hek-293T cells; also called M19
T1 chain: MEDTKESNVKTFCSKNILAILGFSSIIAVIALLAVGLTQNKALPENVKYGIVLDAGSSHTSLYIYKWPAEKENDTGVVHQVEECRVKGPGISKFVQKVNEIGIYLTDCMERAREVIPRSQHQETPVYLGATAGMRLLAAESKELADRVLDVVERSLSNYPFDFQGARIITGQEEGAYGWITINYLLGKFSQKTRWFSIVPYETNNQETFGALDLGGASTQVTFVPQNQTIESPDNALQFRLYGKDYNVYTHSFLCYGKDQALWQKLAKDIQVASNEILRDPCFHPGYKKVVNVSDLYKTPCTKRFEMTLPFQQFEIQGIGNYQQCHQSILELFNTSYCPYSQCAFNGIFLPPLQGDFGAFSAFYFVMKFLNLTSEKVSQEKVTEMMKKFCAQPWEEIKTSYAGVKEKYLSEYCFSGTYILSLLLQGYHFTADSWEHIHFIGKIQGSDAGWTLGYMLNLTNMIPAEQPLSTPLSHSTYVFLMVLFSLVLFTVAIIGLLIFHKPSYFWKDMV

T2: CD39 mutant 5 (human, UniProt P49961 1-510)
T2 construct: Expressed on Hek-293T cells; also called M5
T2 chain: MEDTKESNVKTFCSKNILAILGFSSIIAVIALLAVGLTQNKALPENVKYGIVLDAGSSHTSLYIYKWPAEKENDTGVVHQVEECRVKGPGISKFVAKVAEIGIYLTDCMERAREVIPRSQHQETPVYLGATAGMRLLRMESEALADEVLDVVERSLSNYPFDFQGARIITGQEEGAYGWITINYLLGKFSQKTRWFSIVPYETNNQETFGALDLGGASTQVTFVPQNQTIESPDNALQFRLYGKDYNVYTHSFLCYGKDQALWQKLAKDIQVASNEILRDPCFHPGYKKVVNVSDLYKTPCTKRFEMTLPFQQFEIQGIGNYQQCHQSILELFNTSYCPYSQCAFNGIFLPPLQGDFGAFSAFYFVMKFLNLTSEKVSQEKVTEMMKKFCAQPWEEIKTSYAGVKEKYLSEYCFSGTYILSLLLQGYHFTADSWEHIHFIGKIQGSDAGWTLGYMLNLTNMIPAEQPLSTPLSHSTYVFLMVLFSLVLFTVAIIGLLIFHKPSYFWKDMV

T3: CD39 mutant 15 (human, UniProt P49961 1-510)
T3 construct: Expressed on Hek-293T cells; also called M15
T3 chain: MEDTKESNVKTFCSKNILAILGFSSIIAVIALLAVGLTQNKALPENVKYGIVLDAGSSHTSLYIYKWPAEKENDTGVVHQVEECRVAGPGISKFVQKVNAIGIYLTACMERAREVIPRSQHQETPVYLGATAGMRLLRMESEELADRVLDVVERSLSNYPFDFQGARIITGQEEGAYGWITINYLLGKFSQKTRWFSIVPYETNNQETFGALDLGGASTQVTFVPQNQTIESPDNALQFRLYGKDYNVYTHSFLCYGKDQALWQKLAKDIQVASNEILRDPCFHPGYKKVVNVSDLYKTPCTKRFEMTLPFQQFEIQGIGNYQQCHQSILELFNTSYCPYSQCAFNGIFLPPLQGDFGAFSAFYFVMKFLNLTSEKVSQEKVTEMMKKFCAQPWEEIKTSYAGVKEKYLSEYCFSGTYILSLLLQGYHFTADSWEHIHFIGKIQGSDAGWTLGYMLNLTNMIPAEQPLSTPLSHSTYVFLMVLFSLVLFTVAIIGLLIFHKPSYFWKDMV

T4: CD39 mutant 11 (human, UniProt P49961 1-510)
T4 construct: Expressed on Hek-293T cells
T4 sequence: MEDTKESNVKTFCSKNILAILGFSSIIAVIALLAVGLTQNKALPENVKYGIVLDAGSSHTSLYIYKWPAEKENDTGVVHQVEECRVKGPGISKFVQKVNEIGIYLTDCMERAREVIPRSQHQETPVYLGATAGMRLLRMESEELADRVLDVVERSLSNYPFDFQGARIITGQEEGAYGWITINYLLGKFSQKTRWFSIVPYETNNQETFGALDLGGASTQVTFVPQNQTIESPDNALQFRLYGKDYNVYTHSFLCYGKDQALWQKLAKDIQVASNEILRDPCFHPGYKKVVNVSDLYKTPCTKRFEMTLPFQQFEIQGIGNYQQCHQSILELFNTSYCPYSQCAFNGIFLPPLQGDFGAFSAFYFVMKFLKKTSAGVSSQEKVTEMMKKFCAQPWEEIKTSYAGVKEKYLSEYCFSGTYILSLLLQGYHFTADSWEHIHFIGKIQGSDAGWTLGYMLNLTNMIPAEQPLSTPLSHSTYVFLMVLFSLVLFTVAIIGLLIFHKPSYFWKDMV


How the values were obtained:
CD39 mutant 19 [1] = target: T1, CD39 mutant 19; assay: flow cytometry, Hek-293T cells transfected with CD39 mutant 19 (panel M19); antibody concentration not shown
Experimental: (§1) Mutants were transfected in Hek-293T cells, as shown in the table 1, using numbering of SEQ ID NO: 2. […] Mutant 19 includes substitutions at residues R138, M139 and E142.
(§2) Mutants were transfected in Hek-293T cells, as shown in the table 1, using numbering of SEQ ID NO: 2. Dose-ranges of test antibodies (10-2.5-0.625-0.1563-0.0391-0.0098-0.0024-0.0006 μg/ml) are tested on the 20 generated mutants by flow cytometry.

CD39 mutant 5 [2] = target: T2, CD39 mutant 5; assay: flow cytometry, Hek-293T cells transfected with CD39 mutant 5 (panel M5); antibody concentration not shown
CD39 mutant 15 [3] = target: T3, CD39 mutant 15; assay: flow cytometry, Hek-293T cells transfected with CD39 mutant 15 (panel M15), table under the panel; unstained (US) 8,98; antibody concentration not shown
Experimental: as §1, §2

CD39 mutant 11 = target: T4, CD39 mutant 11; assay: flow cytometry, Hek-293T cells expressing mutant 11
CD39 mutant 19 [4] = target: T1, CD39 mutant 19; assay: flow cytometry, Hek-293T cells expressing mutant 19
CD39 mutant 15 [5] = target: T3, CD39 mutant 15; assay: flow cytometry, Hek-293T cells expressing mutant 15
CD39 mutant 5 [6] = target: T2, CD39 mutant 5; assay: flow cytometry, Hek-293T cells expressing mutant 5
CD39 mutant 15 [7] = target: T3, CD39 mutant 15; assay: flow cytometry, Hek-293T cells transfected with CD39 mutant 15 (panel M15); antibody concentration not shown
CD39 mutant 19 [8] = target: T1, CD39 mutant 19; assay: flow cytometry, Hek-293T cells transfected with CD39 mutant 19 (panel M19), Comp-Alexa Fluor 647-A
CD39 mutant 5 [9] = target: T2, CD39 mutant 5; assay: flow cytometry, Hek-293T cells transfected with CD39 mutant 5 (panel M5), Comp-Alexa Fluor 647-A
Experimental: as §1, §2

binding result (CD39 mutant 19 [1]) | binding result (CD39 mutant 5 [2]) | Median : Comp-Alexa Fluor 647-A (CD39 mutant 15 [3]) | binding result (CD39 mutant 19 [4]) | binding result (CD39 mutant 15 [5]) | binding result (CD39 mutant 5 [6]) | binding result (CD39 mutant 15 [7]) | binding result (CD39 mutant 19 [8]) | binding result (CD39 mutant 5 [9]) | Binder | binding result (CD39 mutant 11)
no binding | no binding | 5750 | – | – | – | – | – | – | antibody I-395 (antibody, V domains shown, Hybridoma antibody purified with protein A) VH: EVQLQQSGPELVKPGASVRMSCKASGYTFTDYNMHWVKKNHGKGLEWIGYINPNNGGTTYNQKFKGKATLTVNTSSKTAYMELRSLTSEDSAVYYCTRGGTRFASWGQGTLVTVSA VL: not shown | –
– | – | – | binds | binds | binds | – | – | – | antibody I-399 (antibody, V domains shown, Hybridoma antibody purified with protein A) VH: PVQLQQPGAEVVMPGASVKLSCKASGYTFTSFWMNWMRQRPGQGLEWIGEIDPSDFYTNSNQRFKGKATLTVDKSSSTAYMQLSSLTSEDSAVYFCARGDFGWYFDVWGTGTSVTVSS VL: EIVLTQSPTTMTSSPGEKITFTCSASSSINSNYLHWYQQKPGFSPKLLIYRTSNLASGVPTRFSGSGSGTSYSLTIGTMEAEDVATYYCQQGSSLPRTFGGGTKLEIK | no binding (tested: dose range up to 10 µg/ml)
– | – | 35.9 | – | – | – | no binding | binds | binds | antibody I-396 (antibody, V domains shown, Hybridoma antibody purified with protein A) VH: EVQLQQSGAELVKPGASVKLSCIVSGFNIKDTYINWVKQRPEQGLEWIGRIDPANGNTKYDPKFQGKATMTSDTSSNTAYLHLSSLTSDDSAVYYCARWGYDDEEADYFDSWGQGTTLTVSS VL: not shown | –
